Molecular target: the molecule itself
Assay: SEC-MALS

B1: Strep-tagged glucose-6-phosphate dehydrogenase (G6PDH) from Synechocystis (enzyme)
chain: not shown
B1 was tested, and the “stoichiometry N” value was 4.

— doi:10.1101/2021.04.15.439997 (bioRxiv, 2021)
